From PMC3174154, “Protein-Protein Interactions in Crystals of the Human Receptor-Type Protein Tyrosine Phosphatase ICA512 Ectodomain” (PLoS ONE, 2011)

How the values were obtained:
[1] = target: the molecule itself; assay: SEC; Superose 12, 20°C, 20 mM sodium phosphate, 150 mM NaCl, pH 7.0; each variant injected at 500 µM in 100 µl, alone or preincubated and injected together
[2] = target: the molecule itself; assay: SEC; Rs against protein concentration in the eluting peak; monomer-dimer equilibrium fitted (dimer to monomers); the text names size exclusion chromatography and light scattering

B1: mature ectodomain of ICA512 (ME ICA512), wild type, residues 470 to 558 (domain or fragment, human, UniProt Q16849 470-558, looked up)
chain: EYGYIVTDQKPLSLAAGVKLLEILAEHVHMSSGSFINISVVGPALTFRIRHNEQNLSLADVTQQAGLVKSELEAQTGLQILQTGVGQRE
notes: the results say 470 to 556; The methods give 470-558, the results 470-556; also called wild-type ME ICA512; wild type variant
[1]
  stoichiometry N: 2
[2]
  Kd: 800 nM
